Target: C4-aa^1355 monoclonal antibody
Test: competitive C4-aa^1355 ECLIA, peptide in solution against the biotinylated coating peptide

Chain of C4-aa^1355 monoclonal antibody (VH, as listed by the source, chain 1 of 2): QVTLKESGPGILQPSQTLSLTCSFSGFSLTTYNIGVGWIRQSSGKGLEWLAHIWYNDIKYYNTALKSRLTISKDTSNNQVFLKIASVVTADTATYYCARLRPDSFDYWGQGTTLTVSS
Chain of C4-aa^1355 monoclonal antibody (VL, as listed by the source, chain 2 of 2): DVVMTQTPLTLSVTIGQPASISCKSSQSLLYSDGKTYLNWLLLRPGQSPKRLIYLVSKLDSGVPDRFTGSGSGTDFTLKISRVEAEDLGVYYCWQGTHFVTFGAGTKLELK

B1: Deselection peptide 2 … (peptide)
peptide: MGNSGPTGAV
- signal left at the highest peptide concentration (% B/B0): 65%
